Measured values: the DeepSol protein solubility set

Experiment: soluble on expression in E. coli; label from the status in PepcDB or PDB records

Sequence	soluble on expression in E. coli
MSVIIRLKNLPMTAGASDVRTFFTGLKIPDGAVHIIGGDEGEVFVGFSSDDDARLAMTKDRLMIHGAEVRLFLSSKSEQNSVIAARKNNTYTSPVYKEYVPPVPSQPTPAQEQNWNSQTAGNPYAAKAGYEASYPPQNSNATRTSFNNQNSYSNRQEISQNHQENSVKLKDPFGGDYGGYKFQQQPPPQINRYGSGPPPSKPADLSNTRSLPPVNNPPPPHPIPQFPPEKQFGNKLGNNNDVSSRENHIQGSGNERVQGGDSWRDTSFNQPPRNDFKGNYNNAYSSNKYKNNYKAPEFNNDFNGGNKFNQFPPRNAQSTDLSENRAAPPQTGRKTLMPTPQAPFQNAPAPFTNGPSDDVNRPFQTGPPGNLGRNGPPPFQAGVPPPVIQNNMGRPIAPPAAMVRPPPQNFPGGAGGALPVFQAPVMTPIVPPVNKPMGAAAVEKFYIELTRLPTDLLRPAALEAFIHPTAPLTLSSVKTVFGPGGIHMHTIIRLDSIADYATMMRRNGEQGIKIQQSDKKSFDTAIDGIPIPSVSMVPSKEQRSHEDDDKKSRRSRWENTSPIRSPRRSPLRRDNRDRSRSRSPPRRRRRSRSPRRREEHTDPTRWCVQVTNVPFRMKDEELLEWFSEKVRPAKLTRTFYSDGNASDRWVAEFSSESLMKRSFGIRTLCTGRTLRLRYIDNAKADEILKIEDVYGEGKRQMNEEARLQHEVAEKANPPSFFNAPAATRGSGPMPPLNGTAPLPSGQQNGMNVPPPNGFNGAPMRGGFVPRGGNNFSQSRGGMMGRGGHGGGGGPQNFYQNGPNNFNNGPPEQQGQFRGNQGNDGGFRGGFRGGYRGRGGGRGGFQGGSRGDDSQPSQSELMELIKSIGPRGTVLSCNGFPKDVTLEDVVEFFNDYEPDRNSIRIRRGDDGVMTGECMLACQNQENARRASMDLDGQKLRNSVISVRII	not soluble
MTYAVEFDNVSRLYGDVRAVDGVSIAIKDGEFFSMLGPSGSGKTTCLRLIAGFEQLSGGAISIFGKPASNLPPWERDVNTVFQDYALFPHMSILDNVAYGLMVKGVNKKQRHAMAQEALEKVALGFVHQRKPSQLSGGQRQRVAIARALVNEPRVLLLDEPLGALDLKLREQMQLELKKLQQSLGITFIFVTHDQGEALSMSDRVAVFNNGRIEQVDSPRDLYMRPRTPFVAGFVGTSNVFDGLMAEKLCGMTGSFALRPEHIRLNTPGELQANGTIQAVQYQGAATRFELKLNGGEKLLVSQANMTGEELPATLTPGQQVMVSWSRDVMVPLVEER	not soluble
MGSDKIHHHHHHMQLIPLAERMRPVLLQDVYGQQHLIGEGMVFRRFVEEGKIPSMILWGPPGVGKTTLAQLLAKTVGLPFYTLSAISSGVKEVREVIANAQTDGKAVLFIDEIHRFSKSQQDALLGAVEKGTIQLIGATTENPSFEVIPALLSRCQVYVLQPLSEEELVELMRSALKKDAYLKTRSVEIKEHDSLLRLSGGDARKLLNLLELVIDASGKDPIVITDAYVQKIAQKKVASYDKNGEMHYDIISAFIKSVRGSDPNAAVYWLARMIEGGEDVEFIARRLLILASEDVGNANPTALVMATTAFDAVRFIGWPESRIILSQVTTYLASSPKSNASYMAINEAQQLVRSHGDLPVPIHLRNAPTKLMKDLDYGKEYKYAHSYEANFVEQEYMPDKLAGKKIFDPGNNAREQELRTFLQKRWKEKYKY	not soluble
METKKQSESETYVERMVLPEDMDIYEYLYGGRLMEWIDNCASIVATKHCRKRTVTGSIDSLFFLLPIHLGDMVILHGYINYTTKSTMEIEIDVIKEEGLTGIRRYATKAYLTYVAIDSDGRPTEIPQIVPETDEEKRRYQDAEKRAEERRKRLESIKQQLASMVP	not soluble
MKIRSLIRVRLTRFFPSDRYIKNRCSGADGVLIDFEKKEDKVDDYKLSSFHRLKNSKFSLPKLLVDPVTTNSNQWIPRLIEEKSVDGVAMRNFTDDVISLDNEIFTMIWDTREQRITHSIISYHRINDCDIMWNSSIRTAVQDSLEHDIQPLAARTLRFRDYETAVQEFEILRQIGFTGAVIRNPNLIEMTNEIFEK	not soluble
MGSDKIHHHHHHMDYSSKDIKSIISEILDKKKAKGGVKSIYVVGCGGSLGALYPAKTFMEKECTSIKSAWINSSEFIHSTPKDFGVNSIICLACHKGNTPETIAAAKLGKEMGATVIILTWLKESEIIEFGDYIIRYTFDASPDHLKGDIDYSGEKTICALLVAVELLAQTEGYENYNKFYEGTKMISNIIKNARNHVAERAVKFAEKYKDDSVIYTMGSGASYGAAYMESICIFMEMQWLNSSSIHTGEYFHGPFEITDANRPFMIQISEGSTRDLDERALKFLNTYAKRIEVLDAKELGLSTIDASVVDYFNHSLFNNVYPIYNHELATKREHPLPTRRYMWKVEY	not soluble
ILDTKPIPTIVDATTLGISGNTSGDYWLPTTMSLYQKELTDQIVSLHYSDILRYFETSHYKEDVILESMKTMCLNGSLVATHPYLLIDHYMPKSLITRDVPAHLAENSGKFSVLRDLINLVQEYETETAIVCRPGRTMDLLEALLLGNKVHIKRYDGHSIKSAAAANDFSCTVHLFSSEGINFTKYPIKSKARFDMLICLDTTVDTSQKDIQYLLQYKRERKGLERYAPIVRLVAINSIDHCRLFFGKKFDKNSREYLENVTAAMVILRDRLGTLPPDLRPIYSQKLHYLVEWLENPTVPWPLPDIYPLKQYTSMDVERSLLTEVHFK	soluble
MSLTSTIEELLTAARRRRVFSAAGWSVGTATTTLCRGLLGTTAWDPPATAVTEDSRWDLASMTKPIVAIAVMSLIEDGVLTLDDTIAEHLPDYADTDKARIRVANLLTHTSGIPGRQPLYQWNRARDELLTAIRRLPLLGPPGAQVSYSSPGFILLGLIAESAAGMPLDQLVAERVTRPAGMVDAGFASPPTELAVATEDDPWRGHLVRGEVHDENAVVLGAPAGHAGMFATLVDMEALGRTLCAQGWGAHGRVLTPAGYAAMITPRTDHLPLRRTLGWQGVDAVDATAGDLIGPDGYGHTGFTGTSLWIDPDRGSYVVLLTNRIHPNRENTAISRVRRAVNNIGFALASEGHHHHHH	soluble
MNRTIDRSVPKLGVRSTRQRTAVVGVLKDLDYFASAKVIHQELTKRDLKVGLTTVYRTLQSLSEIEAVDVLHMSNGETLYRHCLSDEHHHHLVCTECGRTVEIDGGPVEKWAKEVAQLHGFQVTGHDAEIYGLCESCSAATE	not soluble
IFNVPFGLNINLLPQYHMYTTQEAKDKIYYYSGNKVGFDIGASAQIGYMWQVTDNFGISLLGELGYSFDSFNANFDTAKVENPNDITGQIDAPEGTQKLGSASFYTHNLKIGILPKFNIKAFSIGIGLGIIVPMAITQNWKDEAAKTLFKDASTKFMSSVGFYGKLTFDYSIFFTEKIAMNIGLYTGVDAIGSINTTINNTSLNQGAHSEAPLLSYDIGLQLGFRFGPKAFN	not soluble
MGSDKIHHHHHHMPDKSLKKPFVHLIGAGPGDPGLITVKGRESLGRADVVIYDYLANDDLLRFARPDAELIYAGKIGGHHNREQWQINALLVEKALAGNVVARLKGGDSFVFGRGGEECEALVAAGIPFEIVPGVTAGIGVTAYAGIPLTHRGVTTSVTFVTGHEGHDKEVSQIDWEGLSLGSGTVVFYMGIKNLPQITANLMAHGRPPETPVALIRWGTRPEQEVLTGTLADIAEQARRTGFRAPAITVVGEVVRLREKLRWFDNRPLFGTSILVTRAADQAGEFGAMLGALGARVLECPTIAIVPPESWDNLDAAIASLDRFHWAVFTSVNAVRFFFERLAAAGKDSRALGNCRVCAVGPKTAAALAPFGIRPDLIPADYKGEGVVEVFRSEEIAGKRIIFPKGDRARDVIPQGLAELGGEVTAPVAYRNVTPDSLPAGVIAELEERRITCVTFTSSSTVENLAAILGENRFLHLLKGVTIAAIGPITARTCRELGLEVHVEPSKYTLAAMTDALVDFFSRSK	not soluble
MSDSNTSSLPRAAQLEPDAAPAVAVLQQALQWQVIFWSGEATDRDRMRWQSWLAADPAHARAWAQVQRTDEQLQTLASPAAEVLRSADARRCKARRTVLGMAGLLAGAGIMGCGLRQTAQWQMMMADDHTGYGERRNIELADGTQVTLGSATAIDVCYSAQARQLLLRTGEIFIVTAPDSADRPFLVQTTRGSVQALGTRFNVRESGEQIQVAVQDGAVAIRPAGMNPGDVVRLDAGQQTCFDHTKVEAAEALQISATAWTRGLLVAERMRLEDFLVELGRYRSGVLRCDPAVRDLIVSGVYSLDDTDQSLRLLAQALPVQVQTVTRWWTIVGPRPMK	not soluble
MGSDKIHHHHHHMSAIHIKYPALTFKAGQRALRHIRERGLQAADVGVLPGAAGGPKPLGIQGLDLALFGEWLPSAPRQRALIGASIGAWRFASACLDDPVAGIRRLGELYTEQDFAKGVTPAEISRSCQRMLDDLLEGRDGQLLANPHYRLNILVVKSHGQLAHDHRGRLGLGLGSVVASNLLGRSRLARHFERIILHDGRAAPPLDTLTDFPSRYLPLDLTNLRHALLASGSIPMVMQGVKDIPGAGAGTYRDGGLLDYHLDLPYRGDDLVLYPHFTDKVVPGWFDKALPWRKGDATRLQNVLLMTPSPQYLAALPYGKLPDRNDFKRFMGDAPGRKRYWYKAIAESQRLGDELLELTATGRLHERLQAL	not soluble
MIKFSATLLATLIAASVNAATVDLRIMETTDLHSNMMDFDYYKDAATEKFGLVRTASLIEQARAEVKNSVLVDNGDVIQGSPLGDYMAAKGLKEGDVHPVYKAMNTLNYAVGNLGNHEFNYGLDFLHKALAGAKFPYVNANIIDAKTGKPMFTPYLIQDTRVVDSDGQIHTLRIGYIGFVPPQIMTWDKANLNGKVTVNDITETARKYIPEMRAKGADVVVVVAHSGLSADPYQAMAENSVYYLSQVPGVDAIMFGHAHAVFPGKDFANIKGADIAKGTLNGVPAVMPGMWGDHLGVVDLVLNNDSGKWQVTQSKAEARPIYDAVAKKSLAAEDGKLVSVLKADHDATREFVSK	not soluble
MAGDPMIIYRQYHHEGAPVYEIITKTFQHVSIKCDDSFSDTEIFKLLSLLQDDIDHMKVSLEHHHHHH	not soluble
MGSDKIHHHHHHMKQSKKIIITCAVTGSIHTPTMSPYLPITPEEIVKEGVAAAEAGAAMLHLHARDPLNGRPSQDPDLFMRFLPQLKERTDAILNITTGGGLGMSLDERLAPARAARPEVASMNMGSLNFNISQAAAKFDTFKFDWERPYLAGTRDFILSNTFSQIERGMTELGASGTRFEFECYDVGHLYNLAHFVDRKLVEPPFFLQCVFGILGGIGADPENLLHMRTIADRLFGQDYYLSVLAAGRHQMPFVTMSAILGGNVRVGLEDSLYSGKGQLATSNAEQVRKIRRIIEELSLDIATPDEARAMLKTKGANETSF	not soluble
MGHHHHHHHHHHSSGHIEGRHMANPLAGKPFYVDPASAAMVAARNANPPNAELTSVANTPQSYWLDQAFPPATVGGTVARYTGAAQAAGAMPVLTLYGIPHRDCGSYASGGFATGTDYRGWIDAVASGLGSSPATIIVEPDALAMADCLSPDQRQERFDLVRYAVDTLTRDPAAAVYVDAGHSRWLSAEAMAARLNDVGVGRARGFSLNVSNFYTTDEEIGYGEAISGLTNGSHYVIDTSRNGAGPAPDAPLNWCNPSGRALGAPPTTATAGAHADAYLWIKRPGESDGTCGRGEPQAGRFVSQYAIDLAHNAGQ	soluble
MAHHHHHHMCVRTWQKCPGLVSVKHRCIGGTLTNDGLRTEQYSHAPGPVRYFFLCLYDALLAHQQRLDQYWLNPLYQLNVHSFPFVYLYIVHFNTKIIFSFSFKANKNFFPLRLTTGKNCRKTKSTCRQPPTPNIDDRSSL	not soluble
AIAELTGQRLREGDGPDGPADDGAGAQADLEHSLLVAAEKKDEGPYRMEHFRWGSPPKDKRYGGFMTSEKSQTPLVTLFKNAIIKNAYKKGE	soluble
